Data: the supplement of paper PMC12764529
± gives the half width of the 95% confidence interval.

Columns and labels:
[1] = folding stability dG unfold from trypsin proteolysis; higher = more stable
Summary of the method: (§1)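 Designed mini-proteins (under 80 residues, no cysteine) in a PA-tagged cDNA display construct were digested with trypsin and chymotrypsin. Each protease was used at 11 concentrations (threefold dilutions) plus a no-protease condition, followed by sequencing. K50 was inferred by Bayesian fitting of sequencing counts, and unfolding free energy was derived against a sequence-predicted unfolded-state K50 and a shared folded-state K50, per protease or combined. Only designs with AlphaFold2 dimer inter-PAE above 15 were kept.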

[2] = folding stability dG unfold (combined trypsin and chymotrypsin); higher = more stable
Summary of the method: as §1

[3] = folding stability dG unfold from chymotrypsin proteolysis; higher = more stable
Summary of the method: as §1

Row | Sequence | folding stability dG unfold [1] | folding stability dG unfold [2] | folding stability dG unfold [3]
1 | SAGGMPVPVKIEIIDDPGTLIITTPNGKPYTIPIPPNSIEEITIDPEKKVIKIKLKDGEIIIDVPDGSAGGS [r16_104_TrMRF] | 1.62 ± 0.072 kcal/mol | 1.88 ± 0.11 kcal/mol | 1.87 ± 0.038 kcal/mol
2 | SAGGMPVVIEIHVPKDKEEELARLIRRLLSELGAEVRVERFEDGIKVTAVLPDGTVIELHIVDDEKASAGGS [r16_406_TrMRF] | 4.29 ± 0.21 kcal/mol | 4.24 ± 0.19 kcal/mol | 4.03 ± 0.17 kcal/mol
3 | SAGGMQKAIDIAKELGWKILDVDPEKKVVKVKPPDSDVEVTITVDDESTVTITTKNPGSDVVETIPESAGGS [r16_197_JUSTAS] | 1.38 ± 0.091 kcal/mol | 1.4 ± 0.16 kcal/mol | 1.47 ± 0.056 kcal/mol
4 | SAGGMRIEVEIEEVRELPDGRLVFRVRARIELKVRVLERDENGRWRELPEEEVTVELEVEVEVFLPPSAGGS [r16_693_TrROS_Hall] | 3.97 ± 0.19 kcal/mol | 4.75 ± 0.3 kcal/mol | 5.08 ± 0.21 kcal/mol
5 | SAGGMRVERSTSPSGEPVLLITLYLPDGTRVAEAPLRLDPARGGLTEEELEAVLKEIDLPEDVEVELRSAGG [r13_479_JUSTAS] | 0.517 ± 0.11 kcal/mol | 0.482 ± 0.14 kcal/mol | 0.468 ± 0.16 kcal/mol
6 | SAGGMSEALLADPTVEKVELFPSPGVTVYYRPETGTWLIQPPDGSVEEIKMTPEELEKLIADGLKPASAGGS [r16_745_JUSTAS] | 0.839 ± 0.11 kcal/mol | 0.923 ± 0.1 kcal/mol | 0.588 ± 0.23 kcal/mol
7 | SAGGMSIEELLKEAGYEVTVEEEEVDGKLRLKITIKANGKTLVIEVPESDAEEVLREIAKALGLEPESAGGS [r8_226_TrROS_Hall] | 4.2 ± 0.42 kcal/mol | 3.53 ± 0.18 kcal/mol | 3.01 ± 0.047 kcal/mol
8 | SAGGMSITLTPDDGSTLTIPLSDPTLSLEEVVQMVVDKQEGAVNIQVTITFPDSEVTKTYTIPSPGGSAGGS [r16_216_JUSTAS] | 0.846 ± 0.041 kcal/mol | 0.605 ± 0.13 kcal/mol | 0.275 ± 0.13 kcal/mol
9 | SAGGMSLSDPRDIRKAAKLKEIEILVKELNDKGIEVKLDEISFIEGTEEITAIVTFPDGTKYEITINSAGGS [r8_277_TrMRF] | 1.85 ± 0.042 kcal/mol | 1.42 ± 0.075 kcal/mol | 1.02 ± 0.018 kcal/mol
10 | SAGGMSPEELASLSPEERRAVVEEALRERLARERPGAPPDFALEDVPVTVRDPATGTTTTVTVRLEAASAGG [r13_555_JUSTAS] | 0.384 ± 0.11 kcal/mol | 0.177 ± 0.16 kcal/mol | 0.109 ± 0.14 kcal/mol
11 | SAGGMSPELAADPNVKRVLRFPEPGVFLAYYPEKGLLLLTPPDGKVLLIEAKPEEAEKLVESGLKPESAGGS [r16_745_TrMRF] | 0.028 ± 0.12 kcal/mol | -0.0606 ± 0.13 kcal/mol | -0.446 ± 0.19 kcal/mol
12 | SAGGMSPVKVAEKTYVIPLPSSMTKEEAKEEVKKELVPKGIDKIDIPISEDPNKGTLIIKVTVYKYPNESAG [r5_924_JUSTAS] | 0.297 ± 0.2 kcal/mol | 0.49 ± 0.35 kcal/mol | 0.757 ± 0.27 kcal/mol
13 | SAGGMSSSSYTYTTPLSSLKAAHPDLSEEELLALAKEAAKAALEAEGVPVSSVTATLAPDGTLTIVDSAGGS [r8_368_JUSTAS] | 0.862 ± 0.065 kcal/mol | 0.834 ± 0.14 kcal/mol | 0.634 ± 0.12 kcal/mol
14 | SAGGMSTTKTVTSGGSTVTITTEPLPDGTTLSTVTVKSGGSPVTTITIPTSQLGEVAAAGGFAPADLLSAGG [r13_108_JUSTAS] | 0.0387 ± 0.054 kcal/mol | 0.15 ± 0.065 kcal/mol | 0.172 ± 0.055 kcal/mol
15 | SAGGMSTTYTLKYPGTTVTVTFNPGSVTVDDTDPANPVTKPLPVPPGKPLTLAEVKAALAAAGYAVAESAGG [r13_687_JUSTAS] | -0.204 ± 0.15 kcal/mol | 0.0161 ± 0.21 kcal/mol | 0.0182 ± 0.33 kcal/mol
16 | SAGGMSVKIEEKTHPETNEITINVEYDDIEKAKKEIAEKIKKENGNIPVTLVDKNGKPITIPLKELISAGGS [r8_236_JUSTAS] | 0.0225 ± 0.087 kcal/mol | 0.317 ± 0.099 kcal/mol | 0.368 ± 0.03 kcal/mol
17 | SAGGMSVRFRFTDEDDRIHVDEIIPGEGIMRVVVEGEDRPLVFTIDAPPDAAIQLIRDLFDGPFEVEASAGG [r13_141_TrMRF] | -0.187 ± 0.26 kcal/mol | 0.596 ± 0.095 kcal/mol | 0.849 ± 0.11 kcal/mol
18 | SAGGMSVTFEKEDKTYVITFEPSPEGGYLVTLEVLDPKTGEAKPVATAEFTEGSLEDAVVALLAAEESAGGS [r16_378_TrMRF] | 4.08 ± 0.3 kcal/mol | 3.7 ± 0.12 kcal/mol | 3.67 ± 0.08 kcal/mol

Row | Sequence | folding stability dG unfold [1] | folding stability dG unfold [2] | folding stability dG unfold [3]
19 | SAGGMSVVIPVRPEDREEVRELLEALPSEDVKVVIYNPVTGEKREVTPEEARALLEATDEPLVIEVRSAGGS [r16_263_TrMRF] | 1.68 ± 0.046 kcal/mol | 1.84 ± 0.041 kcal/mol | 1.89 ± 0.023 kcal/mol
20 | SAGGMTEEEAKELAKELAEKYAEEKGIEEIELKIESVEKEGDKFTVKVKLTFPNEEKTITITIPKDLISAGG [r13_611_JUSTAS] | 3.34 ± 0.21 kcal/mol | 3.24 ± 0.11 kcal/mol | 3.21 ± 0.19 kcal/mol
21 | SAGGMTEVSEVERSVIPDEGIPVTLERVETTVTVPPTTYKDEKGEVLPPGAVVHTESTVTIEERPELSAGGS [r8_262_JUSTAS] | 0.22 ± 0.036 kcal/mol | 0.257 ± 0.14 kcal/mol | 0.095 ± 0.1 kcal/mol
22 | SAGGMTFETETITLEFPPEDEEEIRKRAEEIAEKLKKEYEKKGYKVEVEFSYDPETGVLTITIKFEKKSAGG [r13_755_JUSTAS] | 3.57 ± 0.19 kcal/mol | 3.99 ± 0.11 kcal/mol | 4.19 ± 0.067 kcal/mol
23 | SAGGMTFTITVTIPAKEKFYDPSKGIWRERELNRVITIPFSSSDIEKAKEEVRSKLPPDKYKITSVDSAGGS [r16_459_JUSTAS] | 1.29 ± 0.04 kcal/mol | 1.19 ± 0.12 kcal/mol | 1.21 ± 0.17 kcal/mol
24 | SAGGMTIRVEVFRDGELVETLEFEGSVEELLAKLPPEVTYVRIEVEKDGKTETVEFKTAEELKAALKSSAGG [r13_299_TrROS_Hall] | 2.13 ± 0.076 kcal/mol | 2.91 ± 0.17 kcal/mol | 3.33 ± 0.067 kcal/mol
25 | SAGGMTITFPEGITITFSPDNTATVTINFPGNPLTLTLNATTLEEVIETAKKAAEEFRKPPPKLVLKVSAGG [r13_896_JUSTAS] | 1.13 ± 0.035 kcal/mol | 1.6 ± 0.096 kcal/mol | 1.72 ± 0.1 kcal/mol
26 | SAGGMTITIDPTPDGVRIKIYDDGKPREIPVAPEVLELIQQNPTLEEIIRELFPPGHPIEKIEIEPWSAGGS [r16_567_TrROS] | 1.57 ± 0.071 kcal/mol | 1.15 ± 0.22 kcal/mol | 1.03 ± 0.17 kcal/mol
27 | SAGGMTITVTKKTKPEDVEKLVEEIKEELEKKGYNVKKIEVTYKVVKDPNSSNEIVELTLTIEVEKPSAGGS [r8_475_JUSTAS] | 4.55 ± 0.89 kcal/mol | 5.28 ± 0.31 kcal/mol | 5.03 ± 0.21 kcal/mol
28 | SAGGMTITVTVPEVPPDRTVTVEVYKPGEKLGSYSGTLNQPKNVTYTFTVPPATITINYSDGKTYPIPLSAG [r5_646_JUSTAS] | 2.22 ± 0.19 kcal/mol | 3.01 ± 0.25 kcal/mol | 3.4 ± 0.038 kcal/mol
29 | SAGGMTIVEVEYTAYDLNSNKSVVVKAYKDPSTGKMTITSSDGVEGEFDPVTKTISLPRGSKSVTLGSAGGS [r16_743_JUSTAS] | 0.266 ± 0.074 kcal/mol | 0.521 ± 0.081 kcal/mol | 0.623 ± 0.11 kcal/mol
30 | SAGGMTKIEVEYYPEKITVTVTTDNPSENPLDIIKKKTGFKIEGGEVLYPSPNVVVVKLKVDPKDLKKSAGG [r13_498_JUSTAS] | 0.443 ± 0.11 kcal/mol | 0.799 ± 0.27 kcal/mol | 1.07 ± 0.11 kcal/mol
31 | SAGGMTKTESEVFFEPDGSSSSAKVTITVDDGPLTANVTISPDSVTTTINYPDGSTVTTTTSVSPAASAGGS [r16_108_JUSTAS] | 0.942 ± 0.081 kcal/mol | 1.27 ± 0.13 kcal/mol | 1.48 ± 0.052 kcal/mol
32 | SAGGMTLEERAEALAAERGWTVTSIELVEEKPGEVKFRVTFRLPDGSLETVEITVKRPPPVPPDNLLSAGGS [r8_309_JUSTAS] | 3.73 ± 0.11 kcal/mol | 3.74 ± 0.057 kcal/mol | 3.726 ± 0.025 kcal/mol
33 | SAGGMTLEFELEAEPLEEVEKRVRELLRELGFPESVEITIEPKKPDDGSVIYPVKVTLNDPALEARLSAGGS [r8_85_JUSTAS] | 1.04 ± 0.038 kcal/mol | 1.11 ± 0.097 kcal/mol | 1.22 ± 0.036 kcal/mol
34 | SAGGMTLEITITFPGPEMLEEAKKIIDELGIELVNPTPNSLTVKAKGPEEVAKIKEEAKKLGFTVTGSAGGS [r16_88_JUSTAS] | 2.92 ± 0.21 kcal/mol | 3.13 ± 0.14 kcal/mol | 3.19 ± 0.086 kcal/mol
35 | SAGGMTLLKVRIYIPSEPKPIEVELFTDGDPEKAEEAVRELVEELGYPDAKVEVELLEVDPSDPRFLGSAGG [r13_682_TrMRF] | 2.38 ± 0.041 kcal/mol | 3.57 ± 0.051 kcal/mol | 3.984 ± 0.024 kcal/mol
36 | SAGGMTLRITTADGRVIEIEADSLEDALAALRTLLGLKPGDVLTVEVVVEVDGEKKTFTLTIVLPPEPSAGG [r13_145_TrROS_Hall] | 4.95 ± 0.14 kcal/mol | > 6 kcal/mol | 6.08 ± 0.089 kcal/mol
